Results taken from PMC4398509, “A new regulatory mechanism for bacterial lipoic acid synthesis”.
Changes are numbered by the printed parent chain.

B1: ybeD_st2 (dsDNA)
DNA 1: CTGTGGCGGGAGTTGTTATTTTTTTTACGTAATGCCGGAGCT
DNA 2: AGCTCCGGCATTACGTAAAAAAAATAACAACTCCCGCCACAG
B2: ybeD_ec (dsDNA)
DNA 1: AAACACTTGAAAGTGTAATTTCCGTCCCCATATACTAAGCAT
DNA 2: ATGCTTAGTATATGGGGACGGAAATTACACTTTCAAGTGTTT
B3: ybeD_kp (dsDNA)
DNA 1: B2 DNA 1 with A1G, A17G, G24A, A38T, G39T
DNA 2: B2 DNA 2 with C4A, T5A, C19T, T26C, T42C
B4: ybeD_es (dsDNA)
DNA 1: B2 DNA 1 with A1G, A17G, G24A, A38G, C40T
DNA 2: B2 DNA 2 with G3A, T5C, C19T, T26C, T42C
B5: ybeD_st1 (dsDNA)
DNA 1: B2 DNA 1 with A1G, A5G, A17G, C22T, A38T
DNA 2: B2 DNA 2 with T5A, G21A, T26C, T38C, T42C
B6: lipBA_she (dsDNA)
DNA 1: CAAGGTCATAAAGTGTGATCTATCTTACATTTATGGCCAAGAG
DNA 2: CTCTTGGCCATAAATGTAAGATAGATCACACTTTATGACCTTG
B7: ybeD_yp (dsDNA)
DNA 1: ATTGGCCCCATATTGTGATTAATCTTATATTGCAAATAAGCT
DNA 2: AGCTTATTTGCAATATAAGATTAATCACAATATGGGGCCAAT
B8: fadD_ec (dsDNA)
DNA 1: GTAAAGATAAAAATAAATAGTGACGCGCTTCGCAACCTTTTCGTTGGG
DNA 2: CCCAACGAAAAGGTTGCGAAGCGCGTCACTATTTATTTTTATCTTTAC
B9: lipA_ec (dsDNA)
DNA 1: ACGGAGTAATAGATGTTATCCGTAATGCATTTTGAAAAAGTA
DNA 2: TACTTTTTCAAAATGCATTACGGATAACATCTATTACTCCGT

These binders were tested against CRP_ec (cAMP receptor protein) (Escherichia coli, UniProt P0ACJ8 1-210) (assay: EMSA; cAMP (20 pmol); EMSA: 0.2 pmol DIG probe, CRP (2 pmol in Fig. 6), 20 pmol cAMP, Roche binding buffer (composition and pH not given), 20 uL (15 uL in Fig. S2), room temperature). Conditions: protein: recombinant; tags: His6 (pET28 construct, nickel purified); chain copies: 2; label: DIG-ddUTP 3' end (terminal transferase); blunt.

| Binder | binding result |
| --- | --- |
| B1 | no binding |
| B2 | no binding |
| B3 | binds |
| B4 | binds |
| B5 | binds |
| B6 | binds |
| B7 | no binding |
| B8 | binds |
| B9 | no binding |

These binders were tested against CRP_she (cAMP receptor protein) (UniProt Q8EJ49 1-211) in the same assay as above. Conditions: protein: recombinant; tags: N-terminal His6 (pET28a); chain copies: 2; label: DIG-ddUTP 3' end (terminal transferase); blunt.

| Binder | binding result |
| --- | --- |
| B6 | binds |
| B8 | binds |
